Assay results reported in US20220411487A1.

Molecular target: catalytically inactive full length human TMPRSS6 on HEK293 cells (HEK293/hTMPRSS6 (S762A)) (human) (UniProt Q8IU80)
Assay: flow cytometry, HEK293 cells expressing target

catalytically inactive full length human TMPRSS6 on HEK293 cells (HEK293/hTMPRSS6 (S762A)) (human), sequence (Q8IU80 10-811 S762A): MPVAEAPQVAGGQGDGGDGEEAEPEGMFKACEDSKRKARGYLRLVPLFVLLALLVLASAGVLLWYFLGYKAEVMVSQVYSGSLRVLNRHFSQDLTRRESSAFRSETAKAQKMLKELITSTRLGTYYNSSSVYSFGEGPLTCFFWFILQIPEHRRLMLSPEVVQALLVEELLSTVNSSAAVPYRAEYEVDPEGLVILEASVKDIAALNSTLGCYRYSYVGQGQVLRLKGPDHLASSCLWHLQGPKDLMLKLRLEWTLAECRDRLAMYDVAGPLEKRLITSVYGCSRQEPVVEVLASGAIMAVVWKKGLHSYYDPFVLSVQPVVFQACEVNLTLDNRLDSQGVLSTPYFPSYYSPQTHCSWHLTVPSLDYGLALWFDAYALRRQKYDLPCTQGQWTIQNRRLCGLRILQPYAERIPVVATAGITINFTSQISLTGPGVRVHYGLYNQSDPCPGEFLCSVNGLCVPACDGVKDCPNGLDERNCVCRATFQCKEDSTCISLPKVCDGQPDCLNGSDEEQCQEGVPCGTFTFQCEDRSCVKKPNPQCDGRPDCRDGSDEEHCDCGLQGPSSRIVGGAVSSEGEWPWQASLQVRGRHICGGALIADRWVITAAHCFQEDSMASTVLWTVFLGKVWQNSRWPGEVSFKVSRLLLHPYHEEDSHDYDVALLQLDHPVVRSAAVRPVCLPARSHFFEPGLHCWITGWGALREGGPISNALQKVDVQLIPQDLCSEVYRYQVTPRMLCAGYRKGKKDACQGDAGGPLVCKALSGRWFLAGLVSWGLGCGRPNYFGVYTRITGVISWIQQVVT

B1: REGN8023 (antibody, human IgG4 S228P, kappa, V domains shown)
VH: EVQLVESGGGLVKPGGSLRISCAASGFIFVDYAMHWVRQAPGKGLEWVSGISWNSGSIGYADSVKGRFTISRDNAKKSLYLQMSGLRPEDTALYYCVKSGFYYVRSYFDNWGQGTLVTVSS
VL: DIVMTQSPLSLPVTPGEPASISCRSSQSLLDSDDGNTYLDWYLRKPGQSPQLLIYTLSYRASGVPDRFSGSGSGTDFTLKISRVEADDVGVYYCMQRIEFPLTFGGGTKVEIKR
  EC50: 2 nM
  Max. Fold Binding (fold over unstained control): 300
